# Patent US20210363214A1 (University of Washington, published 2021)
# B1: TMHC3 (designed binder)
# chain: MSEELRAVADLQRLNIELARKLLIAVALLQLLNILLVMLTSELTDEKTILWMIVIVMFLSLAIVIVALREIRRAKEESRKIADESR
# notes: De novo designed hairpin, entered as one protomer; It self-associates into a homotrimer with six TM helices; also called designed transmembrane trimer TMHC3; not shown: C-terminal hexa-histidine tag from pET-29b (gene without stop codon, NdeI/XhoI)
# B2: TMHC2 (transmembrane hairpin C2) (designed binder)
# chain: MTRTEIIRELERSLRLQLVLAIFLMALLIVLLWLQQNGSSNNNVNYLLIVILVLVLVIVALAVTQKYLVEQLKRQD
# notes: De novo designed two-helix transmembrane hairpin, entered here as one protomer; It was expressed from pET-28b with an N-terminal hexa-histidine tag and a thrombin site
# Key:
# [1] = target: the molecule itself; assay: AUC in detergent solution; self-association to homotrimer
# Excerpt: We used a similar approach to design a transmembrane trimer with six membrane spanning helices (TMHC3) based on the 5L6HC3_1 scaffold (PDB ID: 5IZS). Guided by the results with the C2 designs, we chose a hydrophobic span of ˜30 Å (20 residues) (FIG. 4A). The design was expressed in E. coli and purified to homogeneity, eluting on a gel filtration column as a single homogeneous species (FIG. 5C).
# (§1) Analytical ultracentrifugation (sedimentation velocity and sedimentation equilibrium) experiments were carried out using a Beckman XL-I analytical ultracentrifuge (Beckman Coulter) equipped with an eight-cell An-50 Ti rotor. The proteins were run in 20 mM sodium phosphate, pH 7.0, containing 200 mM NaCl supplemented with 0.5% C8E5, no density matching was necessary and the solvent density was calculated as 1.0075 g mL⁻¹. The partial specific volume of the protein was calculated by the program Sednterp™ (37). For sedimentation velocity, absorbance at 230 nm versus radial location was recorded during centrifugation at 50,000 rpm at 20° C. For sedimentation equilibrium, data were collected by UV detector at 20° C. for at least two protein concentrations at three rotor speeds. The data of sedimentation velocity and sedimentation equilibrium were analyzed using Sedfit™ and Sedphat™.
# [2] = target: the molecule itself; assay: AUC in detergent solution (C8E5); self-association to homodimer
# Procedure: The dimer design with the shortest hydrophobic span (15 residues, TMHC2_S) was poorly behaved in both E. coli and mammalian cells, but the dimer designs with longer spans TMHC2, TMHC2_E and TMHC2_L localized to the cell membrane when expressed in HEK293T cells (data not shown) and in E. coli. The designed proteins were purified by extracting the E. coli membrane fraction with detergent, followed by nickel-NTA chromatography and size exclusion chromatography (SEC) with a yield of ˜2 mg/L (FIG. 6A-B). […] For the single chain scTMHC2 the major species in SEC was the monomer with a small side peak that was readily removed by purification (FIG. 6B).
# as §1, with “For sedimentation equilibrium, data were collected by UV detector at 20° C. for at least two protein concentrations at three rotor speeds.” left out
Protein,binding result [1],binding result [2]
B1,binds,–
B2,–,binds
